Measurements from patent US20110014287A1 (ALLERGAN, published 2011).

Experiments:
[1] = target: T1, silk fibroin, substantially sericin-depleted, from Bombyx mori silk (Bombyx mori, UniProt P05790 22-5263; P21828 17-262, limits assumed); test: HPLC of 23RGD extracted from lyophilized silk precipitate, against standard curve; BASE formulation
T1 construct: also called silk fibroin hydrogel; silk gel
Procedure: (§1) The amount of 23RGD bound to silk precipitates was quantified by analyzing lyophilized samples. The 23RGD was removed by incubating the samples for 4 hours in a dissolving buffer, then centrifuging on an Eppendorf 5415C (Eppendorf North America Inc., Westbury, N.Y.) at 16,000 g (RCF) for 30 minutes and the supernatant collected. This supernatant was then centrifuged in identical fashion and the final supernatant collected for HPLC analysis using a PerkinElmer Series 200 (PerkinElmer, Waltham, Mass.). The 23RGD peak areas from each curve were compared against a standard curve. 1-Way ANOVA was used to test for significant differences caused by changing silk concentration, 23RGD concentration, and accelerant volume. A Student's t-test was used to test the significance of differences resulting from altered ethanol concentrations.

[2] = target: T1, silk fibroin, substantially …; test: HPLC of 23RGD extracted from lyophilized silk precipitate, against standard curve; AVHI formulation
Procedure: as §1

[3] = target: T1, silk fibroin, substantially …; test: HPLC of 23RGD extracted from lyophilized silk precipitate, against standard curve; AVLO formulation
Procedure: as §1

[4] = target: T1, silk fibroin, substantially …; test: HPLC of 23RGD extracted from lyophilized silk precipitate, against standard curve; formulation labelled RLO in this sentence
Procedure: as §1

[5] = target: T1, silk fibroin, substantially …; test: HPLC of 23RGD extracted from lyophilized silk precipitate, against standard curve; RHI formulation
Procedure: as §1

[6] = target: T1, silk fibroin, substantially …; test: HPLC of 23RGD extracted from lyophilized silk precipitate, against standard curve; formulation labelled RMED in this sentence
Procedure: as §1

[7] = target: T1, silk fibroin, substantially …; test: HPLC of 23RGD extracted from silk precipitates, across formulations
Procedure: as §1

[8] = target: T1, silk fibroin, substantially …; test: HPLC of 23RGD extracted from rinsed silk hydrogel, peak area against a 23RGD standard curve
From the text: 23RGD-infused gels were studied to quantify the amount of 23RGD bound to the silk-hydrogel device as well as the quantity of free 23RGD which might be rinsed free of the device under relevant conditions. Briefly, samples of 23RGD-infused gel were cast and rinsed according to the methods above, with samples of rinse buffer being collected from each rinse for subsequent analysis by HPLC. Additionally, subsequent to the last rinse, the gel samples were mechanically pulverized by means of a stainless steel stirring rod and the adsorbed 23RGD removed by incubation for 4 hours in a dissolving buffer. This mixture of gel and solvent was then centrifuged on an Eppendorf 5415C at 16,000 g RCF for 30 minutes. The supernatant was collected and centrifuged another 30 minutes at 16,000 g RCF after which time the supernatant was collected in a sample vial for HPLC analysis. Samples of rinse buffer from the first and last rinse were centrifuged in the same fashion after being diluted with the same solvent the gel was extracted with in a volumetric ratio of 1 part rinse buffer to 4 parts solvent. To ensure 23RGD-hydrogel device rinse-exposed surface area was not a limiting factor, the same rinse and extraction process was performed upon devices pulverized after gelation and before rinsing.

[9] = target: T1, silk fibroin, substantially …; test: HPLC of 23RGD extracted from lyophilized silk precipitate, against standard curve; SCVLO formulation
Procedure: as §1

[10] = target: T1, silk fibroin, substantially …; test: HPLC of 23RGD extracted from lyophilized silk precipitate, against standard curve; SCLO formulation
Procedure: as §1

GRGDIPASSKGGGGSRLLLLLLR (not fully specified; C-terminal -NH2 as printed (HOOC-GRGDIPASSKG4SRL6R-NH2), also called amphiphilic peptide) [23RGD peptide (HOOC-GRGDIPASSKG4SRL6R-NH2)]
23RGD:silk ratio bound to the precipitate [1]: 8.7 23RGD:silk ratio
23RGD:silk ratio bound to the precipitate [2]: 10.5 23RGD:silk ratio
23RGD:silk ratio bound to the precipitate [3]: 5.2 23RGD:silk ratio
23RGD:silk ratio bound to the precipitate [4]: 1.1 23RGD:silk ratio
23RGD:silk ratio bound to the precipitate [5]: 10.7 23RGD:silk ratio
23RGD:silk ratio bound to the precipitate [6]: 6.95 23RGD:silk ratio
apparent saturation 23RGD:silk ratio [7]: ~10 23RGD:silk ratio
23RGD:silk ratio bound to the gel [8]: 3.35 23RGD:silk ratio
23RGD:silk ratio bound to the precipitate [9]: 11 23RGD:silk ratio
23RGD:silk ratio bound to the precipitate [10]: 9.9 23RGD:silk ratio
